Reference: article PMC10842222

Target: CRM1 (UniProt O14980)
Assay: co-immunoprecipitation, immunoblot
Conditions: reference: ALKBH5 WT, EGF-treated; sites Y71

In the case of “ALKBH5 (from UniProt Q6P6C2) ALKBH5 Y71F, EGF-treated”, the “binding against the reference” value is reported as “stronger”.
